± gives the standard deviation of the averaged measurements.
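Further: PSI is a weighted mean of sequencing reads over stability bins, variants kept only with over 10 reads, mCherry proximal and sfGFP distal, peptide attached via GGGS linker.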

The test system of this data set is Saccharomyces cerevisiae. Description: protein stability index of tFT-peptide fusion (C-terminal peptide) (PSI (0-1 scale)); higher = more stable (slower turnover). The note with it: genetic background: wild type; temperature: 30 C.
Turning to RGAHPCLDLRSE, the protein stability index came out at 0.654 ± 0.067.
Next, RGAPLSPPPPRS: 0.714 ± 0.13; RGARVGKGDACW: 0.607 ± 0.069; RGCRVMATGVGV: 0.651 ± 0.022.
Next, RGCSGGVVDWIG: 0.679 ± 0.017.
Consider RGEARDARGLEW, for which the protein stability index is 0.763 ± 0.12.
For the sequence RGEVGKVRGPGT, the protein stability index came to 0.71 ± 0.052.
Next, RGFKEPLSFKAG: 0.613 ± 0.059; RGGASGPFVWAG: 0.71 ± 0.057; RGGEGVWVVGRV: 0.703 ± 0.075.
As for RGGERAGETAGQ, the protein stability index came out at 0.695 ± 0.053.
As for RGGFVEGFVLVR, the figure is 0.611 ± 0.073; as for RGGGPTGARPAM, 0.711 ± 0.1.
As for RGGGQVLGARVG, the figure is 0.634 ± 0.017; as for RGGGWGRKVSVG, 0.659 ± 0.095; as for RGGPSPAASSRG, 0.725 ± 0.057.
In the case of RGGRGGPGWVAG, the protein stability index is 0.681 ± 0.025.
In turn, RGHKATNICHSV yielded a protein stability index of 0.721 ± 0.042.
Next, RGIILSSSGFVW: 0.735 ± 0.012; RGKRGRRGDEAG: 0.712 ± 0.093.
The sequence RGLVRLIRGGYN returned a protein stability index of 0.698 ± 0.18.
The sequence RGMGPGAFVSGQ yielded a protein stability index of 0.677 ± 0.077.
RGPAFAQPLPFL had a protein stability index of 0.738 ± 0.034.
Next, RGPELDRRLPLC: 0.663 ± 0.03; RGPGKKQIISQK: 0.741 ± 0.02.
Next, RGPGSNGSLPWF: 0.689 ± 0.056.
As for RGRAGTRGVVEK, the figure is 0.71 ± 0.024; as for RGRAPLRRPPGP, 0.717 ± 0.048; as for RGRAVGVGGGGV, 0.626 ± 0.027.
Consider RGRCLGAESRGG, for which the protein stability index stood at 0.767 ± 0.069.
Next, RGRKEQSKKKKE: 0.647 ± 0.13; RGRLCRESGSRS: 0.711 ± 0.033.
Next, RGRMGLGSPGGG: 0.639 ± 0.06.
As for RGRRRAADRSLR, the protein stability index was found to be 0.749 ± 0.14.
The sequence RGRSLPIPHTFP yielded a protein stability index of 0.714 ± 0.085.
Next, RGSTLPRRVRLK: 0.641 ± 0.042; RGSVDGTLQKPG: 0.6691 ± 0.00087.
Turning to RGSWSDEFWREG, the protein stability index turned out to be 0.84 ± 0.056.
As for RGTVPHSLDLYL, the figure is 0.679 ± 0.025; as for RGVETGRGREKE, 0.643 ± 0.046; as for RGVRLGPSVVVG, 0.696 ± 0.051.
Next, RHLALSRPTPFP: 0.703 ± 0.04; RHLSRSVSKVLR: 0.629 ± 0.06; RHPTHPVSSLNP: 0.777 ± 0.05.
Next, RHSCLRFPPLHL: 0.694 ± 0.1; RHSHSLSITHLP: 0.675 ± 0.091; RHYKNKGQTRVR: 0.699 ± 0.051.
In turn, RIEEQMIKNEWE returned a protein stability index of 0.6932 ± 0.0047.
Next, RIGELRYATQMK: 0.676 ± 0.052; RILLIRRKEKYL: 0.5578 ± 0.0028; RILPSPVSAGGF: 0.62 ± 0.026.
As for RINKIKRKKRIK, the figure is 0.618 ± 0.062; as for RIPIGDSHIALK, 0.692 ± 0.1.
In turn, RIRGGVLYKGVG came in with a protein stability index of 0.666 ± 0.016.
Next, RIRLNHAMSTVV: 0.625 ± 0.019.
Next, RIRRITAGRQRY: 0.793 ± 0.067; RIRVKSLAPSPS: 0.74 ± 0.17; RITWRSKKGLVI: 0.71 ± 0.031.
As for RKAPLLFSLSHK, the figure is 0.6761 ± 0.0031.
Consider RKATGVLQVQDY, for which the protein stability index was found to be 0.749 ± 0.14.
The sequence RKEEEGNYWNRI displayed a protein stability index of 0.651 ± 0.02.
As for RKEKNRKEKSIQ, the protein stability index came out at 0.668 ± 0.013.
Next, RKFGQRQKRECN: 0.7085 ± 0.0066.
Next, RKGKARKKQKRI: 0.721 ± 0.1; RKICVEDIKESI: 0.669 ± 0.013; RKIIIINLQKIK: 0.586 ± 0.024.
As for RKIQNASLGRGA, the figure is 0.7 ± 0.037; as for RKISLNSPPRES, 0.757 ± 0.1; as for RKKHSHKKAKKK, 0.702 ± 0.014.
Consider RKKKNQKHKKKN, for which the protein stability index was determined as 0.705 ± 0.026.
As to RKKKSNLMDDDD, the protein stability index came to 0.696 ± 0.031.
As for RKKRERIREKKN, the figure is 0.494 ± 0.043; as for RKKRNKQENETK, 0.748 ± 0.013.
RKKRNKTKIEKR displayed a protein stability index of 0.719 ± 0.021.
Next, RKKVRKTKKIKK: 0.628 ± 0.089; RKLDRDLTPESF: 0.666 ± 0.048.
As for RKNEKKKKKNKK, the figure is 0.6645 ± 0.0024.
As for RKNNKKKENKKK, the figure is 0.7954 ± 0.0014.
For the sequence RKNQGKKREPRA, the protein stability index worked out at 0.653 ± 0.079.
As for RKSSAGLERATG, the figure is 0.685 ± 0.018; as for RKYGWSGIGCRA, 0.659 ± 0.016.
Next, RLASPSIISSTL: 0.702 ± 0.0076; RLCDAAVGPEGG: 0.674 ± 0.05.
As for RLETKNITRKHI, the figure is 0.681 ± 0.018.
In turn, RLFRRSPTPALR displayed a protein stability index of 0.8 ± 0.067.
As for RLFSFPPPPTPP, the figure is 0.705 ± 0.011; as for RLFTLVPIGPFM, 0.704 ± 0.055.
Next, RLGGGGVGGAGV: 0.699 ± 0.019; RLGGGGVGVAGV: 0.679 ± 0.00083; RLGGRGGRLGAE: 0.655 ± 0.0068.
As for RLGLVVRPCSPP, the figure is 0.6864 ± 0.0015; as for RLGYSWGECPGG, 0.699 ± 0.012; as for RLKFMTGLFLWS, 0.73 ± 0.019.
As for RLKGSPHPVFLY, the protein stability index worked out at 0.753 ± 0.055.
Next, RLLGRPFRHERG: 0.698 ± 0.043; RLLKRAVRKIFT: 0.61808 ± 0.00049.
As for RLPAPPTVPLPP, the figure is 0.6 ± 0.042; as for RLPPALRRNAPP, 0.665 ± 0.18; as for RLPSLTGLELFS, 0.685 ± 0.025.
RLPTRRSALMGL: the protein stability index turned out to be 0.738 ± 0.043.
Next, RLPVPAAFSSSI: 0.79 ± 0.047.
In turn, RLRPRRNMIDHA yielded a protein stability index of 0.724 ± 0.057.
As for RLRRCPWLRAWR, the figure is 0.7086 ± 0.005.
In turn, RLSGRRLVNYRP had a protein stability index of 0.641 ± 0.036.
Next, RLSGWGLGVWQE: 0.681 ± 0.042; RLSIEVREWGDG: 0.642 ± 0.075; RLSSLSSPPPAF: 0.693 ± 0.07.
Consider RLSSVPSRSLPA, for which the protein stability index was found to be 0.733 ± 0.096.
As for RLSVRPGPLRLL, the figure is 0.68 ± 0.025; as for RLVFSSCLNALF, 0.724 ± 0.073; as for RLVLTHVSRCWQ, 0.673 ± 0.065.
As for RLVRSPSRFSWR, the figure is 0.667 ± 0.031; as for RLYGILLLSGKE, 0.683 ± 0.019.
As for RMLVNKLSAFFI, the figure is 0.64 ± 0.053.
RMSLGLHGVMRC displayed a protein stability index of 0.683 ± 0.045.
As for RNCELQSLSSTL, the figure is 0.732 ± 0.036.

The values are drawn from the supplement of paper PMC10724198.
